Test results reported in PMC8501954.

Target: tRip1-402 (Plasmodium falciparum) (UniProt Q8IL48)
Assay: competition EMSA
Conditions: unmodified transcript; scale: fold difference from Sc tRNAPheGAA

Question: minihelixPhe was tested. Which binding signal did it give?
Answer: < 2
